Laboratory results taken from patent US20260265358A1 (BYOMASS, published 2026).
Positions count from the first letter of the chain named. Blank lines part the entries; values can stand above or below the binder they belong to.

How the values were obtained:
[1] = target: T1, Human Activin A Fc (human, UniProt P03970 309-424 (pig entry)); assay: Octet BLI, IgG, avid
T1 construct: also called human Activin A-Fc fusion; human Activin A-Fc antigen; not shown: Fc part
T1 sequence: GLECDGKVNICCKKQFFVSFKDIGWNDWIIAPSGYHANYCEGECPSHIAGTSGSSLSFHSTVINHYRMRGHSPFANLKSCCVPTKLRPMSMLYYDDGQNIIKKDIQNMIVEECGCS
Experimental: ForteBio affinity measurements were performed on an Octet HTX generally as previously described (see, e.g., Estep et al, Mabs 5(2), 270-278 (2013)). Briefly, ForteBio affinity measurements were performed by loading IgGs on-line onto AHC sensors. Sensors were equilibrated off-line in assay buffer for 30 min and then monitored on-line for 60 seconds for baseline establishment. Sensors with loaded IgGs were exposed to 100 nM antigen for 3 minutes, and afterwards were transferred to assay buffer for 3 min for off-rate measurement. All kinetics were analyzed using the 1:1 binding model.
Binding affinity and epitope binning assays were performed with a ForteBio instrument as described herein.

[2] = target: T2, Human GDF10 (human, UniProt P55107 369-478); assay: Octet BLI, IgG, avid
T2 sequence (looked up): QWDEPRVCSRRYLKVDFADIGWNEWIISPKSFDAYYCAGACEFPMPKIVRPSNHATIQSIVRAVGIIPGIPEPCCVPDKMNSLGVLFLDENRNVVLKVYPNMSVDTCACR

[3] = target: T3, Human GDNF (human, UniProt P39905 78-211); assay: Octet BLI, IgG, avid
T3 sequence (looked up): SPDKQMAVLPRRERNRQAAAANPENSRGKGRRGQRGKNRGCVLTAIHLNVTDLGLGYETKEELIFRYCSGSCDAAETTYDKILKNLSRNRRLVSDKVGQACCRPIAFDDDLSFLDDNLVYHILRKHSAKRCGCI

[4] = target: Human GDF8 (human, UniProt O14793 267-375); assay: Octet BLI, IgG, avid
[5] = target: T4, GDF15 Fc (UniProt Q99988 197-308, limits assumed); assay: Octet BLI, IgG, avid
T4 construct: not shown: Fc part
T4 sequence (looked up): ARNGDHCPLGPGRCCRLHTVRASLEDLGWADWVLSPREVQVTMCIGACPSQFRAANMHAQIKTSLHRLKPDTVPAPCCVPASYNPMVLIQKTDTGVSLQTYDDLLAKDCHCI

[6] = target: T5, BMP9 (UniProt Q9UK05 320-429); assay: Octet BLI, IgG, avid
T5 sequence (looked up): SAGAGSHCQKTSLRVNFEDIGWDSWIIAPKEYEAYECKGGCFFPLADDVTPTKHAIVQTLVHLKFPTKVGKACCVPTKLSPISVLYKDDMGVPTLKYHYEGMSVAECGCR

[7] = target: T6, BMP10 (UniProt O95393 317-424); assay: Octet BLI, IgG, avid
T6 sequence (looked up): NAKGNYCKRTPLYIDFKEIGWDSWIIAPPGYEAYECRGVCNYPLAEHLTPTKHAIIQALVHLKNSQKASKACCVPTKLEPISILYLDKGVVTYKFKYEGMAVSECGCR

[8] = target: Human GDF11 (human, UniProt O95390 299-407); assay: Octet BLI, IgG, avid
Human GDF11, sequence (O95390 299-407 limits assumed): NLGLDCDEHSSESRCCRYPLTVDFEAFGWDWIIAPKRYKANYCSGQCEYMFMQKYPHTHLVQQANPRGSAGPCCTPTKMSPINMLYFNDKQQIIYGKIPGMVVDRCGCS

[9] = target: T7, Activin A (ligand of the Activin 2B Receptor/SMAD reporter assay) (UniProt P08476 311-426); assay: cell-based or functional assay
T7 sequence (looked up): T1 sequence

[10] = target: T8, Activin B (UniProt P09529 293-407); assay: Octet BLI, IgG, avid
T8 sequence (looked up): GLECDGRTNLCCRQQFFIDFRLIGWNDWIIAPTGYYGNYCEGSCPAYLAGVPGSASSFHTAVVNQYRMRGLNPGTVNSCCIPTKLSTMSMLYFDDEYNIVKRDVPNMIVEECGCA

[11] = target: T8, Activin B; assay: cell-based or functional assay

Kd [1]: 1.28 nM
binding result [2]: no binding (tested: 100 nM antigen)
binding result [3]: no binding (tested: 100 nM antigen)
binding result [4]: no binding (tested: 100 nM antigen)
binding result [5]: no binding (tested: 100 nM antigen)
binding result [6]: no binding (tested: 100 nM antigen)
binding result [7]: no binding (tested: 100 nM antigen)
binding result [8]: no binding (tested: 100 nM antigen)
B1: anti-Activin A antibody Clone P (IgG) (antibody, V domains shown)
VH: QVQLVQSGAEVKKPGSSVKVSCKASGGTFDDYAISWVRQAPGQGLEWMGGIIPRFGIANYAQKFQGRVTITADESTSTAYMELSSLRSEDTAVYYCARPPSSGSDWGQGTLVTVSS
VL: DIQMTQSPSSVSASVGDRVTITCRASQGIDSWLAWYQQKPGKAPKLLIYAASSLQSGVPSRFSGSGSGTDFTLTISSLQPEDFATYYCQQVHSFPITFGGGTKVEIKR
notes: IgG format; also called Antibody P

Kd [1]: 1 nM
Activin A-ActRIIB SMAD IC50 pM [9]: 719 pM
binding result [2]: no binding (tested: 100 nM antigen)
binding result [3]: no binding (tested: 100 nM antigen)
binding result [4]: no binding (tested: 100 nM antigen)
binding result [5]: no binding (tested: 100 nM antigen)
binding result [6]: no binding (tested: 100 nM antigen)
Kd [10]: 9.58 nM
binding result [7]: no binding (tested: 100 nM antigen)
binding result [8]: no binding (tested: 100 nM antigen)
B2: anti-Activin A antibody Clone M (IgG) (antibody, V domains shown)
VH: QLQLQESGPGLVKPSETLSLTCTVSGGSISSSDYYWGWIRQPPGKGLEWIGSIYYPANTYYNPSLKSRVTISVDTSKNQFSLKLSSVTAADTAVYYCARGYWNYGMDVWGQGTTVTVSS
VL: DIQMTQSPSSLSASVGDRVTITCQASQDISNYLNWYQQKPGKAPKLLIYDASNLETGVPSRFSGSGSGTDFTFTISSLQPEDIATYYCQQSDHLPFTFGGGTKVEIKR
notes: IgG format; also called Antibody M

Kd [1]: 1.26 nM
Activin A-ActRIIB SMAD IC50 pM [9]: 241 pM
binding result [2]: no binding (tested: 100 nM antigen)
binding result [3]: no binding (tested: 100 nM antigen)
binding result [4]: no binding (tested: 100 nM antigen)
binding result [5]: no binding (tested: 100 nM antigen)
binding result [6]: no binding (tested: 100 nM antigen)
Kd [10]: 6.98 nM
binding result [7]: no binding (tested: 100 nM antigen)
binding result [8]: no binding (tested: 100 nM antigen)
B3: anti-Activin A antibody Clone N (IgG) (antibody, V domains shown)
VH: B2 VH with N58S
VL: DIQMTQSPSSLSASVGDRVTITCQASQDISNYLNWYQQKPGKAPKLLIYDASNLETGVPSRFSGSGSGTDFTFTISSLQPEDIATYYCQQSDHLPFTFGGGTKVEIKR
notes: IgG format; also called Antibody N

Kd [1]: 0.442 nM
Activin A-ActRIIB SMAD IC50 pM [9]: 5400 pM
binding result [2]: no binding (tested: 100 nM antigen)
binding result [3]: no binding (tested: 100 nM antigen)
binding result [4]: no binding (tested: 100 nM antigen)
binding result [5]: no binding (tested: 100 nM antigen)
binding result [6]: no binding (tested: 100 nM antigen)
binding result [10]: no binding (tested: 100 nM antigen)
binding result [7]: no binding (tested: 100 nM antigen)
binding result [8]: no binding (tested: 100 nM antigen)
B4: anti-Activin A antibody Clone O (IgG) (antibody, V domains shown)
VH: QVQLVQSGAEVKKPGSSVKVSCKASGGTFSNYDINWVRQAPGQGLEWMGGIIPVFGTAAYAQKFQGRVTITADESTSTAYMELSSLRSEDTAVYYCAREARDGYRYAFQHWGQGTLVTVSS
VL: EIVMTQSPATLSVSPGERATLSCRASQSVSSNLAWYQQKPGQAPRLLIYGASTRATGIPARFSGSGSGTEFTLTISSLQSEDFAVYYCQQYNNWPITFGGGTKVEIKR
notes: IgG format; also called Antibody O

Kd [1]: 0.6 nM
binding result [2]: no binding (tested: 100 nM antigen)
binding result [3]: no binding (tested: 100 nM antigen)
binding result [4]: no binding (tested: 100 nM antigen)
binding result [5]: no binding (tested: 100 nM antigen)
binding result [6]: no binding (tested: 100 nM antigen)
binding result [10]: no binding (tested: 100 nM antigen)
binding result [7]: no binding (tested: 100 nM antigen)
binding result [8]: no binding (tested: 100 nM antigen)
B5: anti-Activin A antibody Clone R (IgG) (antibody, V domains shown)
VH: QVQLVQSGAEVKKPGSSVKVSCKASGGSFSPYTISWVRQAPGQGLEWMGGIILTSGTANYAQKFQGRVTITADESTSTAYMELSSLRSEDTAVYYCARGGPLSGWRASYYYWGQGTLVTVSS
VL: not shown
notes: IgG format; also called Antibody R

Kd [1]: 0.477 nM
binding result [2]: no binding (tested: 100 nM antigen)
binding result [3]: no binding (tested: 100 nM antigen)
binding result [4]: no binding (tested: 100 nM antigen)
binding result [5]: no binding (tested: 100 nM antigen)
binding result [6]: no binding (tested: 100 nM antigen)
Kd [10]: 148 nM
binding result [7]: no binding (tested: 100 nM antigen)
Kd [8]: 12.7 nM
Activin B-ActRIIB SMAD IC50 pM [11]: > 100000 pM
B6: anti-Activin A antibody Clone C (IgG) (antibody, V domains shown)
VH: QVQLVQSGAEVKKPGASVKVSCKASGYTFPGYHMHWVRQAPGQGLEWMGVINPSSGDTNYAQKFQGRVTMTRDTSISTAYMELSRLRSDDTAVYYCARARDIAALGLGAFDYWGQGTLVTVSS
VL: EIVLTQSPGTLSLSPGERATLSCRASQSVSSSYLAWYQQKPGQAPRLLIYGASSRAGGIPDRFSGSGSGTDFTLTISRLEPEDFAVYYCQQYVAYPRTFGGGTKVEIKR
notes: IgG format

Kd [1]: 0.515 nM
binding result [2]: no binding (tested: 100 nM antigen)
binding result [3]: no binding (tested: 100 nM antigen)
binding result [4]: no binding (tested: 100 nM antigen)
binding result [5]: no binding (tested: 100 nM antigen)
binding result [6]: no binding (tested: 100 nM antigen)
Kd [10]: 153 nM
binding result [7]: no binding (tested: 100 nM antigen)
Kd [8]: 23.4 nM
B7: anti-Activin A antibody Clone D (IgG) (antibody, V domains shown)
VH: B6 VH with P30F, H33S
VL: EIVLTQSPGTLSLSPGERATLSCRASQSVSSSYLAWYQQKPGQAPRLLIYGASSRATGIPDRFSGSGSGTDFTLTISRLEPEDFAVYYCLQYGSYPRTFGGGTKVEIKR
notes: IgG format; also called Antibody D

Activin A-ActRIIB SMAD IC50 pM [9]: 41.7 pM
B8: anti-Activin A antibody Clone J (IgG) (antibody, V domains shown)
VH: EVQLVQSGAEVKKPGSSVKVSCKASGGTFSLYAISWVRQAPGQGLEWMGGIIPYFGTANYAQKFQGRVTITADESTSTAYMELSSLRSEDTAVYYCARGGSGYSTSWGSSLYWGQGTLVTVSS
VL: B6 VL with S53F, G57T, Y92S, V93G, A94V, Y95F, R97Y

Kd [1]: 0.492 nM
binding result [2]: no binding (tested: 100 nM antigen)
binding result [3]: no binding (tested: 100 nM antigen)
binding result [4]: no binding (tested: 100 nM antigen)
binding result [5]: no binding (tested: 100 nM antigen)
binding result [6]: no binding (tested: 100 nM antigen)
Kd [10]: 80.1 nM
binding result [7]: no binding (tested: 100 nM antigen)
Kd [8]: 18.7 nM
Activin B-ActRIIB SMAD IC50 pM [11]: 24900 pM
B9: anti-Activin A antibody Clone F (IgG) (antibody, V domains shown)
VH: QVQLVQSGAEVKKPGASVKVSCKASGYTFTGYHIHWVRQVPGQGLEWMGVISAYSGDTNYAQKLQGRVTMTTDTSTSTAYMELRSLRSDDTAVYYCARARDIAALGLGAFDYWGQGTLVTVSS
VL: EIVLTQSPATLSVSPGERATLSCRASQSVSSNLAWYQQKPGQAPRLLIYGASDRATGIPARFSGSGSGTEFTLTISSLQSEDFAVYYCIQYSNYPRTFGGGTKVEIKR
notes: IgG format; also called Antibody F
